The values that follow come from US20230128688A1, “DIRECTED CONJUGATION TECHNOLOGIES” (KLEO PHARMACEUTICALS, INC., priority 2019, published 2023).

This assay concerns the target T cell receptor (TCR)/CD3 on effector Jurkat T cells. Kind of assay: cell-based or functional assay.

Turning to “III-1 (CD20×CD3; rituximab×SP34 scFv) (bispecific antibody)”, the EC50 of T cell activation (NFAT-RE luciferase luminescence in Jurkat effector cells), effector only condition is > 10 nM and the EC50 of T cell activation (NFAT-RE luciferase luminescence in Jurkat effector cells), effector+target (Daudi) condition worked out at 0.1 nM.
